Earlier results in paper PMC3899951.

Assays:
[1] = molecular target: histone H4 K5,8,12,16ac peptide (Homo sapiens) (UniProt P62805)
[2] = molecular target: histone H4 singly acetylated peptide (Homo sapiens) (UniProt P62805)

Substance: TAFII250 tandem bromodomain (from UniProt P21675)
- Kd [1]: 5 µM
- Kd [2]: 39 µM
